The nanobody polyreactivity screen of Harvey et al. (2022)

Experiment: yeast display, Sf9 membrane polyspecificity reagent, FACS + sequencing; frameworks hold sequencing errors
Procedure, shortened: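 Using colony PCR, genes from sorted yeast display clones were amplified, then sequenced on MiSeq at 2 × 250 and filtered by CDR length. The clones had been stained with 10% biotinylated, detergent-solubilized Sf9 membrane reagent for 1 hour at 4 °C and sorted by FACS into low and high (top ~1%) gates on anti-HA and streptavidin fluorescence. Polyreactivity labels come from the gate of origin.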

Sequence	polyreactivity (PSR sort gate)
QVQLVESGGGLVQAGGSLRLSCAASGRIYLTNAMGWYRQAPGKERELVAAITSGGSTYYADSVKGRFTISRDNAKNTVYLQMNSLKPEDTAVYYCNADTDRYWPYEYDYWGQGTQVTVSS	low polyreactivity
QVQLVESGGGLVQAGGSLRLSCAASGGTFVHNAMGWYRQAPGKERELVAAISWSGGSTYYADSVKGRFTISRDNAKNTVYLQMNSLKPEDTAVYYCAADLPDYKDIFDSWGQGTQVTVSS	low polyreactivity
QVQLGESGGGLVQAGGSLRLSCAASGSTFGRYVMGWYRQAPAKERELVDAISKNAGSTYYADSVKGRFTISRDIAKKTVYLQMNSLKPEDTAVYYCAADWRTKGYDSLGQGTQVTVSS	high polyreactivity
QVQLVESGGGLVQAGGSLRLSCAASGSTFSTYAMGWYRQAPGKERELVAAITRRGGRTYYADSVKGRFTISRDNAKNTVYLQMNSLKPEDTAVYYCAKTSPVSDGYYWGQGTQVTVSS	high polyreactivity
QVQLVESGGGLVQAGGSLRLSCAASGFTFYFYAMGWYRQAPGKERELVAAISRGGSTTYADSVKGRFTISRDNAKNTVYLQMNSLKPEDTAVYYCAVGYDIVRYSYSPFYRYDYWGQGTQVTVSS	low polyreactivity
QVQLVESGGCLVQAGGSLRLSCAASGSIFWSYSMGWYRQAPGKERELVAAISSGGSTNYADSVKGRFTISRDNAKNTVYLQMNSLKPEDTAVYYCSARFYTTSVRRKRYDYWGQGTQVTVSS	high polyreactivity
QVQLVESGGGLVQAGGSLRLSCAASGSTFESYAMGWYRQAPGKERELVAAISGRVGSTYYADSVKGRFTISRDNAKNTVYLQMNSLKPEDTAVYYCASKGWYSHYGGYDYWGQGTQVTVSS	low polyreactivity
QVQLVESGGGLVQAGGSLRLSCAASGSIFHTYTMGWYRQAPGKERELVAAITRSGGTTYYADSVKGRFTISRDNAKNTVYLQMNSLKPEDTAVYYCAATHPGAVSFRYYYWGQGTQVTVSS	high polyreactivity
QVQLVESGGGLVQAGGSLRLSCAASGSTFDYYPMGWYRQAPGKERELVAAITYSGGRTSYADSVKGRFTISRDNAKNTVYLQMNSLKPEDTAVYYCAAVYDGQYYASYSTYDYDYWGQGTQVTVSS	low polyreactivity
QVQLVESGGGLVQAGGSLRLSCAASGRTFGPYVMGWYRQAPGKERELVAAISFSGGSTYYADSVKGRFTISRDNAKNTVYLQMNSLKPEDTAVYYCAARAVGGVRGYRYDYWGQGTQVTVSS	high polyreactivity
QVQLVESVGGLVQAGCSLRLSCAASGSIIRTNTMGWYRQAPGKEREFVAAISRSGGSTYYADSVKGRFTISRDNAKNTVYLQMNSLKPEDTAGYYCNARWGLGSYGYWGQGTQVTVSS	high polyreactivity
QVQLVESGVGLVQARGSLRLSCAASGITFNYYAMGWYRQAPGKESELVATINRSGGTTYYADSVKGRFTISRDKAKNTDYLQMNSLKQEDTAVYDCNARYTSLGRYHSGYEYWGQGTQVTVSS	high polyreactivity
QVQLVESGGGLVQAGGSLRLSCAASGFTFRYYAMGWYRQAPGKERELVAAITRRSGSTYYADSVKGRFTISRDNAKNTVYLQMNSLKPEDTAVYYCAARASTIMGSWGQGTQVTVSS	high polyreactivity
QVQLVESGGGLVQAGGSLRLSCAASGSIIYTNAMGRYRQAPGKEREVVAAITGTTTTNYADSVKGRFTISRDNAKNTVYVQMNSLKPEDTAVYYCNADYDRSRVYYSVELYDYWGQGTQVTVSS	low polyreactivity
QVQLVESGGGLVQAGGSLRLTCAASGFIFCSYAMRWYRQAPGKERELVAAISFRGGSTFYADSVKGRFTISRDNAKNTVYLQMNSLKPEDTAVYYCNKAAYSIHSGLSYYHWGQGTQVTVSS	low polyreactivity
QVQLVESGGGLVQAGGSLRLSCAASGRIFNQYGMGWYRPAPGKERELVAAIRSGDSTNYADSVKGRFTISRDNAKNTVELQMNSLKPEDTAVYYCARDRPGDYAGYDYWGQGTQVTVSS	low polyreactivity
QVQLVESGGGLVEAGGSLRLSCADSGRTFGSYTMGWYRQAPGKEREWVAAITSGGRTNYADSVKGRFTISRDNAKNTVYLQMNSLKPEDTAVYYCAPGWRGGRYRYFAYDYWGQGTQVTVSS	high polyreactivity
QVQLVESGGGLVQAGGSLRLSCAPSGIIFLGYMGWYRQAPGKEREFVADITFSVDGTYYADSVKGRFTISRDNAKNTVYLQMNSLKPEDNAVYYCAAVSDLQAGTMEYWGQGTEVTVSS	high polyreactivity
QVQLVESGGGLVQAGGSLRLSCAASGSIFRFYGMGWYRQAPGKERELVATISWSSGRTSYADSVKGRFTISRDNAKNTVYLQMKSLKPEDTAVYYCNADQWDKSYDYWGQGTQVTVSS	high polyreactivity
QVQLVESGGGLVHAGGSLRLSCAASGSIFYPYAMGWYRKAPGKERELVAAISRSGGRTYYADSVKGRFTISRDNAKNTVYLQMNSLKPEDTAVYYCNAYYPGNGPRSTSTRYEYWGQGTQVTVSS	high polyreactivity
QVQLVESGGGLVQAGCSLRCSCPDSGGIFTRYVMGWYRPAPGKEREMVAAISSRGGSTYYADSVKGRFTISRDNAKNTVYLQMNSLKPEDTAVYYSAAEQGRTSYRYYYWGQGTQVTVSS	high polyreactivity
